Consider one molecule from patent US6649742.

In the assay the target is T1, human CD5 cell differentiation marker (human, UniProt P06127 25-495).
T1 sequence: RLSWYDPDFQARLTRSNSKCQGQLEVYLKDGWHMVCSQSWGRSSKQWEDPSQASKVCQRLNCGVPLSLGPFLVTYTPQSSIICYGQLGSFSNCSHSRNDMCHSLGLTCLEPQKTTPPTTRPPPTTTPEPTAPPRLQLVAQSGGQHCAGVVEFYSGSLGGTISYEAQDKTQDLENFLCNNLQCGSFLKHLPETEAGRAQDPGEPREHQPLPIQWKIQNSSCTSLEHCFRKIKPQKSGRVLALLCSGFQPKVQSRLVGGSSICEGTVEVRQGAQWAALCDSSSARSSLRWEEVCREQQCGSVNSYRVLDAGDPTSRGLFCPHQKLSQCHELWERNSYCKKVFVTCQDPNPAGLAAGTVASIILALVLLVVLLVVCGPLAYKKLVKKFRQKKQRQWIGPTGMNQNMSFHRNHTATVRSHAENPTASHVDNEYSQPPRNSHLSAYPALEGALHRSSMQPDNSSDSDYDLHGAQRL
Briefly: cell-based or functional assay.

B1: he3Fab-rGelA50(C44) (other)
light: DIQMTQSPSSLSASVGDRVTITCRASQDINSYLSWFQQKPGKAPKTLIYRANRLESGVPSRFSGSGSGTDYTLTISSLQYEDFGIYYCQQYDESPWTFGGGTKLEIK
heavy: EIQLVQSGGGLVKPGGSVRISCAASGYTFTNYGMNWVRQAPGKGLEWMGWINTHTGEPTYADSFKGRFTFSLDDSKNTAYLQINSLRAEDTAVYFCTRRGYDWYFDVWGQGTTVTVSS
chain: GLDTVSFSTKGATYITYVNFLNELRVKLKPEGNSHGIPLLRKKCDDPGKAFVLVALSNDNGQLAEIAIDVTSVYVVGYQVRNRSYFFKDAPDAAYEGLFKNTIKTRLHFGGSYPSLEGEKAYRETTDLGIEPLRIGIKKLDENAIDNYKPTEIASSLLVVIQMVSEAARFTFIENQIRNNFQQRIRPANNTISLENKWGKLSFQIRTSGANGMFSEAVELERANGKKYYVTAVDQVKPKIALLKFVDKDPK
modifications: Cys 44 disulfide-linked to the M2IT linker on the Fab; lysine residues of the Fab derivatized with 5-methyl-2-iminothiolane (M2IT), 1 M2IT per Fab
For B1, the “IC50 (pMT), CEM Cells; whole cell cytotoxicity (inhibition of protein synthesis)” value stood at 173 pMT and the “IC50 (pMT), HSB2 Cells; whole cell cytotoxicity (inhibition of protein synthesis)” value was determined as 165 pMT.
